From patent US20160177397, “APTAMER FOR DETECTION OF ALPHA-METHYLACYL-COA RACEMASE AND DIAGNOSTIC KIT THEREOF” (NATIONAL TAIWAN UNIVERSITY, published 2016)

B1: AMC56 (ssDNA)
DNA: CCCTACGGCGCTAACCCAGCTACTCTAGAACCCATTATATTTTGGGCCACCGTGCTACAA
B2: AMC55 (ssDNA)
DNA: CCCTACGGCGCTAACCAGTATGTTCCGGATTGGAGAGCTCCTGTTGCCACCGTGCTACAA
B3: AMC51 (ssDNA)
DNA: CCCTACGGCGCTAACCCATGCTACGAATTCGTTGTTAAACAATAGGCCACCGTGCTACAA

Key:
[1] = target: T1, AMACR (alpha-methylacyl-CoA racemase, isoform CRA_c), homemade recombinant (Homo sapiens, UniProt Q9UHK6 Q9UHK6:1-382); test: apparent Kd; fluorescent ELAA, same buffer, room temperature; details: label: biotin; stem-loops, B-form-like CD
T1 sequence: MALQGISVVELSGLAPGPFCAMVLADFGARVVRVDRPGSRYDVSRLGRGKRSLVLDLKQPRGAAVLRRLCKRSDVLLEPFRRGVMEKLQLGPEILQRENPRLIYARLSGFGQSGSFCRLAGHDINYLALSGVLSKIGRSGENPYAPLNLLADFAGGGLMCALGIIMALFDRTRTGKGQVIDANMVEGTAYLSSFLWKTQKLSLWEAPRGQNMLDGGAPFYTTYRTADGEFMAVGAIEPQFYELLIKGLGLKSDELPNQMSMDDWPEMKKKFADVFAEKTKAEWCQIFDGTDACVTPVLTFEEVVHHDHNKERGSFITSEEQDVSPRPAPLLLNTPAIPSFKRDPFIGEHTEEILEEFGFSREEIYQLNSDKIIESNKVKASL
Description: (§1) Enzyme-linked aptamer assays with typical black opaque 96-well polystyrene microtiter plates that resembled ELISA assays were carried out for (1) assessment of the affinity and specificity of the selected AMACR binding aptamers and (2) proof-of-concept fluorescent AMACR detection using aptamers. For the first task, varied concentrations of aptamers were tested with a constant protein concentration ([…]); for the second task, varied concentrations of proteins were detected using a constant aptamer concentration (500 nM). Both used the following ELAA protocol unless otherwise noted. For protein coating, AMACR diluted in 0.05 M sodium carbonate buffer (pH9.6) was added to the wells of the plates (100 μL/well) and incubated at 4° C. overnight. After incubation, the wells were washed three times with 200 μL/well of selection buffer containing 0.05% Tween 20. For blocking, each AMACR-coated well was added with 200 μL of 3 wt % BSA in the selection buffer containing 0.05% Tween 20 and was then incubated at 37° C. for 2 h. Afterward, wells were washed as previously described. Before protein assays, biotin-labeled aptamer sequences were suspended in the selection buffer, heated to 95° C. for 5 min, and gradually cooled to 25° C. […] Finally, the fluorescent signal of each well was read by a fluorescent microplate reader (excitation at 435 nm and emission at 555 nm). […]

[2] = target: Bovine serum albumin (BSA) (Bos taurus, UniProt P02769 P02769:25-607); test: ELAA, 0.5 uM aptamer, 0.2 uM protein; details: tags: Sigma-Aldrich; label: biotin; stem-loops, B-form-like CD
Bovine serum albumin (BSA), sequence (P02769 25-607, one chain of several): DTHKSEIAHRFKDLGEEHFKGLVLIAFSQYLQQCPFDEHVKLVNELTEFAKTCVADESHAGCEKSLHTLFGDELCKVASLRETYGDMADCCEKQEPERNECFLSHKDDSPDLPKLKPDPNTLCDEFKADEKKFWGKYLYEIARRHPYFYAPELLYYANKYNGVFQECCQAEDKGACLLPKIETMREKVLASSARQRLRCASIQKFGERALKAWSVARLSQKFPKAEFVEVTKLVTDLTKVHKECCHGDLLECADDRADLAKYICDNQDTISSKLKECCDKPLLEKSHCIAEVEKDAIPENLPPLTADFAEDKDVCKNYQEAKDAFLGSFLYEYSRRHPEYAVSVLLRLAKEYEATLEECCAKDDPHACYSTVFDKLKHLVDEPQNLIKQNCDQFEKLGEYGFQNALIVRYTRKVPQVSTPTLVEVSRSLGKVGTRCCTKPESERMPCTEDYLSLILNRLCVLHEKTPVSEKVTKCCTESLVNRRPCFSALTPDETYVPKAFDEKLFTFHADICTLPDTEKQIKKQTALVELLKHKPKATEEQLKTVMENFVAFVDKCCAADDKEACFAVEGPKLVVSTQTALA
Description: (§2) Enzyme-linked aptamer assays with typical black opaque 96-well polystyrene microtiter plates that resembled ELISA assays were carried out for (1) assessment of the affinity and specificity of the selected AMACR binding aptamers and (2) proof-of-concept fluorescent AMACR detection using aptamers. For the first task, varied concentrations of aptamers were tested with a constant protein concentration ([…]); for the second task, varied concentrations of proteins were detected using a constant aptamer concentration (500 nM). Both used the following ELAA protocol unless otherwise noted. For protein coating, AMACR diluted in 0.05 M sodium carbonate buffer (pH9.6) was added to the wells of the plates (100 μL/well) and incubated at 4° C. overnight. After incubation, the wells were washed three times with 200 μL/well of selection buffer containing 0.05% Tween 20. For blocking, each AMACR-coated well was added with 200 μL of 3 wt % BSA in the selection buffer containing 0.05% Tween 20 and was then incubated at 37° C. for 2 h. Afterward, wells were washed as previously described. Before protein assays, biotin-labeled aptamer sequences were suspended in the selection buffer, heated to 95° C. for 5 min, and gradually cooled to 25° C. Then each protein-coated well was added with 100 μL of aptamer solution (in the selection buffer) and was incubated at room temperature for 1 h followed by the same wash procedure. After that, each well was added with two drops (ca. 100 μL) of an alkaline phosphatase-conjugated streptavidin (Strep-AP) solution (0.003 mg/mL) (Abcam) and incubated at room temperature for 30 min followed by the washes. For fluorescent signal development, each well was added with 100 μL of AttoPhos® AP fluorescent substrate solution (Promega) and incubated in dark for at least 15 min. Finally, the fluorescent signal of each well was read by a fluorescent microplate reader (excitation at 435 nm and emission at 555 nm).
(§3) FIG. 5A represented the results of the equilibrium AMACR total binding assays using the fluorescent ELAA format for AMC51, AMC55, and AMC56.

[3] = target: T2, Human serum albumin (HSA) (Homo sapiens, UniProt P02768 P02768:25-609); test: ELAA, 0.5 uM aptamer, 0.2 uM protein; details: tags: Sigma-Aldrich; label: biotin; stem-loops, B-form-like CD
T2 sequence (P02768 25-609, one chain of several): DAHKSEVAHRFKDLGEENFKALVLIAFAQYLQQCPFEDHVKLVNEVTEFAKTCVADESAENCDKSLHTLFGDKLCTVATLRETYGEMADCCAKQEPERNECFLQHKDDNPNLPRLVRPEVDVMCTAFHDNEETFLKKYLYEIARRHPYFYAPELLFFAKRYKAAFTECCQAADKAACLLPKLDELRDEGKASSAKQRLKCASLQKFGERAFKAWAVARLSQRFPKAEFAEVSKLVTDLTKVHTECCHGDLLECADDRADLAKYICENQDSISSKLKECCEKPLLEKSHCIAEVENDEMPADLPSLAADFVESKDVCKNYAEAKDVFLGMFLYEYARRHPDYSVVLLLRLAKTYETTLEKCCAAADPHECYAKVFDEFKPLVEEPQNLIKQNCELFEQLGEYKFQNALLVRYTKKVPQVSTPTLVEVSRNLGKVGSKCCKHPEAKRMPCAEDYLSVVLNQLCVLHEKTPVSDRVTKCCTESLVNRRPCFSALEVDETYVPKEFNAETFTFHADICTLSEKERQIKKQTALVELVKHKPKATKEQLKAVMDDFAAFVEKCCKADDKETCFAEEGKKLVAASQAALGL
Description: as §2, §3

[4] = target: T1, AMACR (alpha-methylacyl-CoA racemase, …); test: apparent Kd; fluorescent ELAA, AMACR coated at 0.2 uM; 50 mM Tris/HCl, 100 mM NaCl, 4 mM KCl, 2.5 mM MgCl2, 1 mM CaCl2, pH 7.4, room temperature; details: label: biotin; stem-loops, B-form-like CD
Description: as §1

[5] = target: T2, Human serum albumin (HSA); test: ELAA, 0.5 uM aptamer, 0.2 uM protein; also no significant cross-reactivity in FIG. 6 dose series; details: tags: Sigma-Aldrich; label: biotin; stem-loops, B-form-like CD
Description: as §1

| Binder | Kd [1] | binding result [2] | binding result [3] | Kd [4] | binding result [5] |
| --- | --- | --- | --- | --- | --- |
| B1 | 65 nM | no binding | no binding | – | – |
| B2 | 139 nM | no binding | no binding | – | – |
| B3 | – | no binding | – | 49 nM | no binding |
